Article PMC5399792

System: Nc1nc2c(ncn2[C@@H]2O[C@H](COP(=O)(O)O[C@H]3[C@@H](O)[C@H](n4cnc5c(N)ncnc54)O[C@@H]3CO)[C@@H](O)[C@H]2O)c(=O)[nH]1
Experiment: purified protein, by the assay type
Conditions: pH 7.4; 24.0 °C

## influenza B polymerase initiating RNA synthesis at the vRNA promoter (vPol) (Influenza B virus (B/Memphis/13/2003))
  Km: 58 ± 18 µM
